Changes are numbered by the printed parent chain.
B1: mAb 2D2.1 (antibody, human IgG2, lambda, V domains shown)
VH: QVQLQQWGAGLLKPSETLSLTCAVYGGSFSGYYWSWIRQPPGKGLEWIGEIDHSGRINYNPALKSRLTISVDTSKNQFSLKLSSVTAADTAVYYCARAGSGGYEDWFDPWGQGTLVTVSS
VL: QSVLTQPPSVSGAPGQRVTISCTGSSSNIGAGYNVHWYQQFPRTDPKLLIYVYNIRPSGVPDRFSGSRSGTSASLAITGLQTEDEADYYCQSYDSSLSGVVFGGGTKLTVLG
notes: fully human IgG2 lambda, Campaign 1; also called mAb 2D.1
B2: mAb 2B7.1 (antibody, human IgG2, V domains shown)
VH: B1 VH with R56S, I57T
VL: B1 VL with A31T
notes: fully human, Campaign 1
B3: mAb 2C1.1 (antibody, human IgG2, lambda, V domains shown)
VH: B1 VH with R56S, I57T
VL: B1 VL
notes: fully human IgG2 lambda, Campaign 1; tested hybridoma-purified and recombinant; also called anti-hOrai1 mAb 2C1.1
B4: mAb 5A4.2 (antibody, human IgG2, lambda, V domains shown)
VH: QVQLVQSGAEVKKPGASVKVSCKASGYTFTDYYMNWVRQAPGQGLEWMGWINPNSGGTKYAQKFQGRVTMTRDTSIRTAYMELSRLRSDDTAVYYCSREYGGNSDWFDPWGQGTLVTVSS
VL: QSVLTQPPSVSGAPGQRVTISCTGSSSNIGAGYDVHWYQQLPGTAPKLLIYGNSNRPSGVPDRFSGSKSGTSASLAITGLQAEDEADYYCQSYDNRLSDSVVIGGGTKLTVQG
notes: fully human IgG2 lambda, Campaign 2
B5: mAb 5B1.1 (antibody, human IgG2, lambda, V domains shown)
VH: B4 VH with M34I, T58S, K59S, R77S, Y80H, S84I, S97A, Y100R, N103I, S104E
VL: QSVLTQPPSVSGAPGQRVTISCTGSSSNIGAGYDVHWYQQLPGTAPKLLIYGNSNRPSGVPDRFSGSKSGTSASLAITKFQAEDEAVYYCQSYGSGLSGVVFGGGTKLTVLG
notes: fully human IgG2 lambda, Campaign 2; also called mAb 5Bl1.1
B6: mAb 5F2.1 (antibody, human IgG2, lambda, V domains shown)
VH: B4 VH with K59H, R77S, S97A, N103Y
VL: B4 VL with S26R, G43R, G52D, T71S, R96S, V102L, Q112L
notes: as for B4
B7: mAb 5F7.1 (antibody, human IgG2, lambda)
heavy: QVQLVQSGAEVKKPGASVKVPCKASGYTFTDYYINWVRQAPGQGLEWMGWINPNNGGTNYAQKFQGRVTMTRDTSISTAYMELRRLRSDDTAVYYCARERGGYEDWFDPWGQGTLVTVSSASTKGPSVFPLAPCSRSTSESTAALGCLVKDYFPEPVTVSWNSGALTSGVHTFPAVLQSSGLYSLSSVVTVPSSNFGTQTYTCNVDHKPSNTKVDKTVERKCCVECPPCPAPPVAGPSVFLFPPKPKDTLMISRTPEVTCVVVDVSHEDPEVQFNWYVDGVEVHNAKTKPREEQFNSTFRVVSVLTVVHQDWLNGKEYKCKVSNKGLPAPIEKTISKTKGQPREPQVYTLPPSREEMTKNQVSLTCLVKGFYPSDIAVEWESNGQPENNYKTTPPMLDSDGSFFLYSKLTVDKSRWQQGNVFSCSVMHEALHNHYTQKSLSLSPGK
light: QSVLTQPPSVSGAPGQRVTISCTGSSSNIGAGFDVHWYQQLPVTAPKLLIYGNRNRPSGVPARFSGSKSGTSASLAITGLQAEDEAVYYCQSYDSSLTVFGGGTKLTVLGQPKANPTVTLFPPSSEELQANKATLVCLISDFYPGAVTVAWKADGSPVKAGVETTKPSKQSNNKYAASSYLSLTPEQWKSHRSYSCQVTHEGSTVEKTVAPTECS
notes: as for B4

Legend:
human Orai1 [1] = molecular target: T1, human Orai1 (human, UniProt Q96D31 1-301); assay: cell-based or functional assay
T1 sequence (Q96D31 whole entry): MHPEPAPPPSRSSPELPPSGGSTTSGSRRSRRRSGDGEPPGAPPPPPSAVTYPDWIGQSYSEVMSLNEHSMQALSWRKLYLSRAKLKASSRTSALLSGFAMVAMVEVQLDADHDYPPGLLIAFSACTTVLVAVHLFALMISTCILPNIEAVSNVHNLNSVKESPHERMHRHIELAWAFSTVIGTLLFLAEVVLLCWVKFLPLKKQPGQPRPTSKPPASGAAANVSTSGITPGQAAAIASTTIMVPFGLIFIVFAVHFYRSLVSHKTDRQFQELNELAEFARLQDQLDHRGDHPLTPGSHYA

human Orai1 [2] = molecular target: T1, human Orai1; assay: cell-based or functional assay; remark: listed apart in the source
[3] = molecular target: T2, mOrai1-hOrai1 ECL2 chimeric protein (human/mouse chimera, UniProt Q8BWG9 1-304 (mouse entry)); assay: FACS, 293EBNA, RFI-POC grade
T2 construct: mouse Orai1 with human ECL2; also called Ch
T2 sequence (Q8BWG9 other isoform, or with tags, fused parts or gaps mutant): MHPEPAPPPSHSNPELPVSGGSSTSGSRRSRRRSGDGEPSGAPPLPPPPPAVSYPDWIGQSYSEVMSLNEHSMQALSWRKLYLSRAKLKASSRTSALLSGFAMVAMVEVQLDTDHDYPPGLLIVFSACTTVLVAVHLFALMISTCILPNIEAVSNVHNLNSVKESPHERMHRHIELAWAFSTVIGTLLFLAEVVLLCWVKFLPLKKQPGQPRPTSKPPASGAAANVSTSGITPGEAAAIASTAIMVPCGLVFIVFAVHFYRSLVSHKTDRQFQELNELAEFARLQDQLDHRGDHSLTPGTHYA
Description: (§1) FIG. 16A-D illustrates the results of FACS analysis showing binding to the indicated mOrai1-hOrai1 ECL2 chimeric mutants expressed on the surface of HEK-293-EBNA cells. Transfected cells were stained first with recombinant monoclonal antibodies then counter-stained with a secondary phycoerythrin-labeled goat (“Gt”) anti-human (“Hu”) IgG F(ab′)₂ antibody fragment and visualized using FACS. In FIG. 16B and FIG. 16D, The values of Relative Fluorescence Intensity as Percent of Control (RFI-POC) are calculated from the relative fluorescence intensity geometric mean (Geo Mean). The geometric mean is an average calculated by multiplying a series of numbers and taking the nth root where n is the number of numbers in the series. It is a statistical average of a set of transformed numbers often used to represent a central tendency in a highly variable data set that minimizes the effects of extreme values.
(§2) Table 11A and Table 11B feature a schematic representation of the POC data from FIG. 16B and FIG. 16D, respectively, where the binding results are recorded as (+++) denoting binding POC from 40% to 100%, (++) for POC of 5% to less than 40%, (+) for POC from 1% to less than 5% and (−) as lack of binding with POC less than 1%.

[4] = molecular target: T3, mOrai1-hOrai1 ECL2 (HSD) protein (human/mouse chimera, UniProt Q8BWG9 1-304 (mouse entry)); assay: FACS, 293EBNA, RFI-POC grade
T3 construct: also called Ch
T3 sequence (Q8BWG9 other isoform, or with tags, fused parts or gaps): as the sequence (Q8BWG9 other isoform, or with tags, fused parts or gaps mutant) above, with V226H, T228D counted along it
Description: as §1, §2

[5] = molecular target: T4, mOrai1-hOrai1 ECL2 (VIV) protein (human/mouse chimera, UniProt Q8BWG9 1-304 (mouse entry)); assay: FACS, 293EBNA, RFI-POC grade
T4 construct: also called Ch
T4 sequence (Q8BWG9 other isoform, or with tags, fused parts or gaps): as the sequence (Q8BWG9 other isoform, or with tags, fused parts or gaps mutant) above, with G221V, A222I, A223V counted along it
Description: as §1, §2

human Orai1 [6] = molecular target: T1, human Orai1; assay: KinExA, AM1-CHO/hOrai1/hSTIM1-YFP cells
Experimental: Each equilibrium sample set was read in triplicate on the KinExA machine. For low [Ab] equilibrium samples 4 mL was run of each sample in triplicate. For high [Ab] equilibrium samples 300 μL was run of each sample in triplicate. […] For each equilibrium sample the free [Ab] would be detected by first running the coated beads through the flow cell, then after quick wash with the running buffer (1×PBS pH7.4+1% BSA+0.05% Sodium Azide) the equilibrium samples were passed through the beads followed by a quick wash with the running buffer. Then the secondary detection Ab, Gt anti Hu (H+ L) Cy5, was run through the flow cell at 1 μg/mL and 1000 μL per run. The KinExA voltage output signal was then used in KinExA software to calculate the Kd values for each antibody. From the plots at two different initial total [Ab] concentrations the Kd was obtained from curve fitting using n-curve analysis in KinExA Pro software (Sapidyne Instruments Inc., Boise Id.).

[7] = molecular target: T5, mOrai1-hOrai1 ECL2 (…) protein (human/mouse chimera, UniProt Q8BWG9 1-304 (mouse entry)); assay: FACS, 293EBNA transfectants [D00028 FIG. 16B]
T5 construct: also called Ch
T5 sequence (Q8BWG9 other isoform, or with tags, fused parts or gaps): as the sequence (Q8BWG9 other isoform, or with tags, fused parts or gaps mutant) above, with P218A, A219E, G221V, A222I, A223V, V226H, T228D counted along it
Description: as §1, §2

[8] = molecular target: T6, mOrai1-hOrai1 ECL2 (AESVIV) protein (human/mouse chimera, UniProt Q8BWG9 1-304 (mouse entry)); assay: FACS, 293EBNA transfectants [D00028 FIG. 16B]
T6 construct: also called Ch
T6 sequence (Q8BWG9 other isoform, or with tags, fused parts or gaps): as the sequence (Q8BWG9 other isoform, or with tags, fused parts or gaps mutant) above, with P218A, A219E, G221V, A222I, A223V counted along it
Description: as §1, §2

cynomolgus Orai1 = cynomolgus Orai1 (cynomolgus monkey, UniProt Q96D31 1-301 (human entry)); assay: cell-based or functional assay
Sequence of cynomolgus Orai1 (Q96D31 other isoform, or with tags, fused parts or gaps): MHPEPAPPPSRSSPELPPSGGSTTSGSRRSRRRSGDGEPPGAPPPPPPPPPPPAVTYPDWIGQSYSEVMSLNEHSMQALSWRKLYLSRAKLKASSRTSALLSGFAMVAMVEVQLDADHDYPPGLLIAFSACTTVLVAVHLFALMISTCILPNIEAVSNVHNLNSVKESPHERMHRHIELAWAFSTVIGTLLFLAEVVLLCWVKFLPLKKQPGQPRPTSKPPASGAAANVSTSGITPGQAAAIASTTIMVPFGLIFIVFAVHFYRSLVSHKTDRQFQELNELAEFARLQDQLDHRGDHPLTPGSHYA

human Orai1 [9] = molecular target: T1, human Orai1; assay: cell-based or functional assay; remark: listed apart in the source

Row | IC50, NFAT-mediated luciferase assay (FIG. 6B) (human Orai1 [1]) [nM] | IC50, NFAT-mediated luciferase assay (FIG. 6C) (human Orai1 [1]) [nM] | IC50 IFN-γ, whole blood Donor A (human Orai1 [2]) [nM] | IC50 IFN-γ, whole blood Donor B (human Orai1 [2]) [nM] | IC50 IL-2, whole blood Donor A (human Orai1 [2]) [nM] | IC50 IL-2, whole blood Donor B (human Orai1 [2]) [nM] | POC (percent of control, FACS Geo Mean relative to Ch. 1) [3] [%] | POC (percent of control, FACS Geo Mean relative to Ch. 1) [4] [%] | POC (percent of control, FACS Geo Mean relative to Ch. 1) [5] [%] | Kd (human Orai1 [6]) [nM] | IC50 IFN-γ, whole blood Donor A, recombinant mAb (human Orai1 [9]) [nM] | IC50 IFN-γ, whole blood Donor B, recombinant mAb (human Orai1 [9]) [nM] | IC50 IL-2, whole blood Donor A, recombinant mAb (human Orai1 [9]) [nM] | IC50 IL-2, whole blood Donor B, recombinant mAb (human Orai1 [9]) [nM] | also measured | Binder
1 | 2.8 | 2.7 | 1.98 | 2.06 | 1.31 | 1.16 | 40 to 100 | 40 to 100 | 40 to 100 | 0.099 | – | – | – | – | – | B1
2 | 4.2 | 3.5 | 4.6 | 14 | 3.5 | 4.67 | 40 to 100 | 40 to 100 | 40 to 100 | 0.1 | – | – | – | – | binding result [7]: binds; binding result [8]: binds | B2
3 | 4.4 | 1.8 | 17.1 | 2.67 | 5.23 | 1.44 | 40 to 100 | 40 to 100 | 40 to 100 | 0.04 | – | – | – | – | IC50 of ICRAC current block, whole-cell patch clamp, HEK-293/hOrai1/hSTIM1 BB6.3 (human Orai1 [1]): 55.9 nM; IC50 IL-4 release, cynomolgus whole blood, Cyno # 1 (cynomolgus Orai1): 0.921 nM; IC50 IL-4 release, cynomolgus whole blood, Cyno # 2 (cynomolgus Orai1): 6.34 nM; IC50 IL-4 release, cynomolgus whole blood, Cyno # 3 (cynomolgus Orai1): 0.429 nM; IC50 IL-5 release, cynomolgus whole blood, Cyno # 1 (cynomolgus Orai1): 1.56 nM; IC50 IL-5 release, cynomolgus whole blood, Cyno # 2 (cynomolgus Orai1): 15.2 nM; IC50 IL-5 release, cynomolgus whole blood, Cyno # 3 (cynomolgus Orai1): 0.815 nM; IC50 IL-17 release, cynomolgus whole blood, Cyno # 1 (cynomolgus Orai1): 0.939 nM; IC50 IL-17 release, cynomolgus whole blood, Cyno # 2 (cynomolgus Orai1): 0.95 nM; IC50 IL-17 release, cynomolgus whole blood, Cyno # 3 (cynomolgus Orai1): 0.32 nM; binding result [7]: binds; binding result [8]: binds | B3
4 | – | – | – | – | – | – | – | – | – | – | 0.59 | 3.59 | 1.42 | 0.87 | – | B4
5 | – | – | – | – | – | – | – | – | – | – | 0.52 | 34.8 | 2.08 | 9.52 | – | B5
6 | – | – | – | – | – | – | – | – | – | – | 11.1 | 9.84 | 2.42 | 2.43 | – | B6
7 | – | – | – | – | – | – | – | – | – | 0.019 | 0.28 | 10.7 | 1.32 | 2.52 | – | B7

— patent US20120231006A1 (Amgen, published 2012)
